In publication PMC5335569, “Biophysical studies suggest a new structural arrangement of crotoxin and provide insights into its toxic mechanism” (Scientific Reports, 2017):

Target: the molecule itself
Experiment: small angle X-ray scattering

B1: Crotoxin B (enzyme)
chain: HLLQFNKMIKFETRKNAVPFYAFYGCYCGWGGQGRPKDATDRCCFVHDCCYGKLAKCNTKWDIYRYSLKSGYITCGKGTWCEEQICECDRVAAECLRRSLSTYKNGYMFYPDSRCRGPSETC
  stoichiometry N: 4
